Results as given in patent US20220259289A1 (Janssen / Centocor, published 2022).

How the values were obtained:
[1] = target: unrelated Fc-fused recombinant protein; assay: ELISA, negative control Fc protein
[2] = target: T1, recombinant biotinylated CD137 protein (Fc-fusion protein, R&D Systems 838-4B) (human, UniProt Q07011 24-186, biotinylated, sites not stated); assay: ELISA, lysate on biotinylated CD137-Fc
T1 construct: Bought Fc fusion; also called CD137-Fc
Protocol: (§1) Streptavidin-coated Maxisorp plates (Nunc catalog 436110) were blocked for 1 h in Starting Block T20 (Pierce) and then coated with biotinylated CD137 (using same antigen as in panning) or negative controls (an unrelated Fc-fused recombinant protein and human serum albumin) for 1 h. Plates were rinsed with TBST and diluted lysate was applied to plates for 1 h. Following additional rinses, wells were treated with HRP-conjugated anti-Centyrin antibody (PAB25) for 1 h and then assayed with POD (Roche catalog 11582950001).

[3] = target: extracellular domain of human CD137 on the surface of CHO-K1 cells (human, UniProt Q07011 24-186); assay: flow cytometry on CHO-K1 cells with human CD137 ECD
Protocol: Cell surface binding was analyzed via flow cytometry. Cenyrins were prepared at a maximal concentration of 500 nM in the presence of 125 nM anti His-mIgG1 antibody and then serially diluted in PBS/1% FCS buffer. Samples were then applied to approx 100 000 CHO-Kl cells expressing the extracellular domain of human CD137 on their surface. Unbound Centyrin/Antibody complexes were washed away and bound FN3 domains were detected by the addition of goat anti mouse-FITC labeled antibody. Samples were then aquired by flow cytometry. Subsequently, Mean flurescence intensity was plotted against the log Centyrin concentration and EC50 values were calculated by nonlinear regression using GraphPad Prism.

human serum albumin [4] = target: T2, human serum albumin (human, UniProt P02768 25-609); assay: ELISA, negative control HSA
T2 construct: Negative control of the ELISA; also called HSA
Protocol: as §1
T2 sequence (P02768 25-609 limits assumed): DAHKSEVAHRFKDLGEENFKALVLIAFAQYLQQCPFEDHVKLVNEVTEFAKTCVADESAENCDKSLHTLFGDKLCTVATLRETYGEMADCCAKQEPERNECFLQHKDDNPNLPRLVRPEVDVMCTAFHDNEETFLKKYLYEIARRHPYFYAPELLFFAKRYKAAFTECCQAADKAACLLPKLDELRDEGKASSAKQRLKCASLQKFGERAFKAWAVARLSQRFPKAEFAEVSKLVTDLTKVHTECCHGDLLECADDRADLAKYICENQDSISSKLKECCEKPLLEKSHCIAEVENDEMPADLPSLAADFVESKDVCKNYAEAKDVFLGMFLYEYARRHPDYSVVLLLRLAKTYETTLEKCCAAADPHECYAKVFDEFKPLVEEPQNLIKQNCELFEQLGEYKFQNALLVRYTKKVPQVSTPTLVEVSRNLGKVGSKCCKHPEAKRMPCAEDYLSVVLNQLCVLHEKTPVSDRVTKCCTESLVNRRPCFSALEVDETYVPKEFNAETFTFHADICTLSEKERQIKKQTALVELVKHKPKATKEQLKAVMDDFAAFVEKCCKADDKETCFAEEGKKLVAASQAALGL

human serum albumin [5] = target: T3, human serum albumin (human, UniProt P02768 25-609); assay: ELISA, bacterial lysate on plate-bound antigen, luminescence
T3 construct: Negative control antigen of the screening ELISA; also called HSA
Summary of the method: (§2)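 Biotinylated CD137-Fc, an unrelated Fc-fusion protein or human serum albumin captured 1 h on streptavidin plates blocked in Starting Block T20; diluted bacterial lysate applied 1 h. Bound binders detected with HRP-conjugated anti-Centyrin antibody (PAB25) for 1 h, then POD substrate read-out.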
T3 sequence (P02768 25-609 limits assumed): as above

[6] = target: T4, recombinant biotinylated human CD137 protein (Fc-fusion protein, R&D Systems 838-4B) (human, UniProt Q07011 24-186, biotinylated (site not stated)); assay: as above
T4 construct: Bought Fc fusion; The ELISA used the same antigen as the panning; also called CD137-Fc; biotinylated CD137; not shown: Fc part of the bought fusion protein
Summary of the method: as §2

[7] = target: unrelated Fc-fused recombinant protein (negative control); assay: as above

Row | Binder | ELISA Fc Control (RLU) [1] [RLU] | ELISA CD137 (RLU) [2] [RLU] | EC50 [3] [nM] | ELISA HSA (RLU) (human serum albumin [4]) | ELISA HSA (RLU) (human serum albumin [5]) | ELISA CD137-Fc (RLU) [6] [RLU] | ELISA Fc Control (RLU) [7] [RLU]
1 | ISOP193AR9P1B10 (designed binder, not shown: small tags and cut ends) LPAPKNLVVSRVTEDSARLSWAFQWHIFDSFLIQYQESEKVGEAIVLTVPGSERSYDLTGLKPGTEYTVSIYGVGRHYTVYDSNPLSAIFTT | 1520 | 8.12e+06 | 1.21 | 480 |  |  | 
2 | ISOP120BR5P1G11 (designed binder, not shown: small tags and cut ends, FN3 domain (Centyrin); tested as E. coli lysate) LPAPKNLVVSRVTEDSARLSWTKRHFYTFDSFLIQYQESEKVGEAIVLTVPGSERSYYLTGLKPGTENTVSIYGVHGNHPYTDAPANPLSAIFTT |  |  |  |  | 560 | 485000 | 480
3 | ISOP193AR9P1G11 (designed binder, not shown: small tags and cut ends) LPAPKNLVVSRVTEDSARLSWTNEQITKYGFDSFLIQYQESEKVGEAIVLTVPGSERSYDLTGLKPGTEYTVSIYGVGRHYTVYDSNPLSAIFTT | 2240 | 5.89e+06 | 10.5 | 960 |  |  | 
4 | ISOP193AR9P1F9 (designed binder, not shown: small tags and cut ends) LPAPKNLVVSRVTEDSARLSWPLFASDLNIFDSFLIQYQESEKVGEAIVLTVPGSERSYDLTGLKPGTEYTVSIYGVGRHYTVYDSNPLSAIFTT | 1600 | 4.71e+06 | 218 | 560 |  |  | 
5 | ISOP120BR5P1B7 (designed binder, not shown: small tags and cut ends, FN3 domain (Centyrin); tested as E. coli lysate) LPAPKNLVVSRVTEDSARLSWGAKTRQFDSFLIQYQESEKVGEAIVLTVPGSERSYDLTGLKPGTEYTVSIYGVWWVENHFPVSNPLSAIFTT |  |  |  |  | 480 | 565000 | 400
6 | ISOP120BR5P1E8 (designed binder, not shown: small tags and cut ends, FN3 domain (Centyrin); tested as E. coli lysate) LPAPKNLVVSRVTEDSARLSWNGGEYWVPRFDSFLIQYQESEKVGEAIVLTVPGSERSYDLTGLKPGTEYTVSIYGVVWLQWISWTDSNPLSAIFTT |  |  |  |  | 640 | 906000 | 480
7 | ISOP120BR5P1B9 (designed binder, not shown: small tags and cut ends, FN3 domain (Centyrin); tested as E. coli lysate) LPAPKNLVVSRVTEDSARLSWAVEFNPTKFDSFLIQYQESEKVGEAIVLTVPGSERSYDLTGLKPGTEYTVSIYGVWWFEQWYPVSNPLSAIFTT |  |  |  |  | 400 | 358000 | 560
8 | ISOP120BR5P1H3 (designed binder, not shown: small tags and cut ends, FN3 domain (Centyrin); tested as E. coli lysate) LPAPKNLVVSRVTEDSARLSWEESRQFFDSFLIQYQESEKVGEAIVLTVPGSERSYDLTGLKPGTEYTVSIYGVVHRAWLRWNGSNPLSAIFTT |  |  |  |  | 720 | 875000 | 2000
9 | ISOP120BR5P1D9 (designed binder, not shown: small tags and cut ends, FN3 domain (Centyrin); tested as E. coli lysate) LPAPKNLVVSRVTEDSARLSWTINSHIFDSFLIQYQESEKVGEAIVLTVPGSERSYDLTGLKPGTEYTVSIYGVWGTKYWQAQSNPLSAIFTT |  |  |  |  | 560 | 1.22e+06 | 560
10 | ISOP120BR5P1E6 (designed binder, not shown: small tags and cut ends, FN3 domain (Centyrin); tested as E. coli lysate) LPAPKNLVVSRVTEDSARLSWLEGANAEFDSFLIQYQESEKVGEAIVLTVPGSERSYDLTGLKPGTEYTVSIYGVHWVGPWYPVSNPLSAIFTT |  |  |  |  | 400 | 779000 | 320
11 | ISOP120BR5P1G4 (designed binder, not shown: small tags and cut ends, FN3 domain (Centyrin); tested as E. coli lysate) LPAPKNLVVSRVTEDSARLSWAGHYRKIRNFDSFLIQYQESEKVGEAIVLTVPGSERSYDLTGLKPGTEYTVSIYGVKFPYYYATADSNPLSAIFTT |  |  |  |  | 400 | 580000 | 480
12 | ISOP120BR5P1A5 (designed binder, not shown: small tags and cut ends, FN3 domain (Centyrin); tested as E. coli lysate) LPAPKNLVVSRVTEDSARLSWAGHYRKIRNFDSFLIQYQESEKVGEAIVLTVPGSKRSYDLTGLKPGTEYTVSIYGVKFPYYYATADSNPLSAIFTT |  |  |  |  | 400 | 503000 | 640
13 | ISOP120BR5P1D8 (designed binder, not shown: small tags and cut ends, FN3 domain (Centyrin); tested as E. coli lysate) LPAPKNLVVSRVTEDSARLSWKNHTQEWEFDSFLIQYQESEKVGEAIVLTVPGSERSYDLTGLKPGTEYTVSIYGVPIAWLAWTSTSNPLSAIFTT |  |  |  |  | 320 | 942000 | 480
14 | ISOP193AR9P1B4 (designed binder, not shown: small tags and cut ends) LPAPKNLVVSRVTEDSARLSWRDLQYHTFDSFLIQYQESEKVGEAIVLTVPGSERSYDLTGLKPGTEYTVSIYGVGRHYTVYDSNPLSAIFTT | 960 | 5.74e+06 | 13.9 | 480 |  |  | 
15 | ISOP120GR5P1G3 (designed binder, not shown: small tags and cut ends, FN3 domain (Centyrin); tested as E. coli lysate) LPAPKNLVVSRVTEDSARLSWTAPDAAFDSFYIRYWEFCHSGEAIELSVPGSERSYDLTGLKPGTEYFVRIVGVKGGRVSLPLGAKFTT |  |  |  |  | 320 | 1.34e+06 | 320
16 | ISOP120GR5P1E1 (designed binder, not shown: small tags and cut ends, FN3 domain (Centyrin); tested as E. coli lysate) LPAPKNLVVSRVTEDSARLSWTAPDAAFDSFIIQYAEDSSWGEAINLHVPGSERSYDLTGLKPGTEYHVHIYGVKGGEASNPLWAWFTT |  |  |  |  | 320 | 1.02e+06 | 320
17 | ISOP120BR5P1C9 (designed binder, not shown: small tags and cut ends, FN3 domain (Centyrin); tested as E. coli lysate) LPAPKNLVVSRVTEDSARLSWAWNRHDFDSFLIQYQESEKVGEAIVLTVPGSERSYDLTGLKPGTEYTVSIYGVHWTVLRPFIDSNPLSAIFTT |  |  |  |  | 560 | 1.27e+06 | 320
18 | ISOP120BR5P1D3 (designed binder, not shown: small tags and cut ends, FN3 domain (Centyrin); tested as E. coli lysate) LPAPKNLVVSRVTEDSARLSWSEHPTPFATFDSFLIQYQESEKVGEAIVLTVPGSERSYDLTGLKPGTEYTVSIYGVWWVENHFPVSNPLSAIFTT |  |  |  |  | 400 | 1.14e+06 | 240
19 | ISOP120BR5P1E4 (designed binder, not shown: small tags and cut ends, FN3 domain (Centyrin); tested as E. coli lysate) LPAPKNLVVSRVTEDSARLSWDDQFEDWFDSFLIQYQESEQVGEAIVLTVPGSERSYDLTGLKPGTEYTVSIYGVHTRDWTAWNASNPLSAIFTT |  |  |  |  | 560 | 942000 | 320
20 | ISOP120BR5P1C7 (designed binder, not shown: small tags and cut ends, FN3 domain (Centyrin); tested as E. coli lysate) LPAPKNLVVSRVTEDSARLSWNVTQKEFDSFLIQYQESEKVGEAIVLTVPGSERSYDLTGLKPGTEYTVSIYGVGNRYYTVYDSNPLSAIFTT |  |  |  |  | 240 | 306000 | 880
21 | ISOP120BR5P1A10 (designed binder, not shown: small tags and cut ends, FN3 domain (Centyrin); tested as E. coli lysate) LPAPKNLVVSRVTEDSARLSWTEEDITHLRFDSFLIQYQESEKVGEAIVLTVPGSERSYDLTGLKPGTEYTVSIYGVYWTWWVRWNSNPLSAIFTT |  |  |  |  | 26600 | 573000 | 36200
22 | ISOP193ER9P1G11 (designed binder, not shown: small tags and cut ends) LPAPKNLVVSRVTEDSARLSWTAPDAAFDSFDIYYFEHPVGGEAIVLTVPGSERSYDLTGLKPGTEYLVTIYGVKGGYLSMPLSAIFTT | 1440 |  | 18.7 |  |  |  | 
